# According to paper PMC8766458, “Deciphering the mechanism of processive ssDNA digestion by the Dna2-RPA ensemble” (Nature Communications, 2022):
# Experiments:
# Details in all cases: both partners purified
# [1] = target: T1, dna2-D657A (nuclease-dead Dna2) (S. cerevisiae, UniProt P38859 1-1522, D657A); experiment: native gel or EMSA; ternary complex of dna2-D657A variants (20 nM), Rfa1 truncations or mutants (20 nM) and 5 nM dT(20) ssDNA; 150 mM KCl, 30 °C, 4% native gel
# T1 construct: Dna2, Saccharomyces cerevisiae, nuclease-dead version; Purified as the other Dna2 variants; FLAG tag used for quantum-dot labelling in DNA Curtains; also called dna2-D657A mutant; source: over-expressed in yeast, purified (Ni-NTA, anti-FLAG-M2 resin)
# [2] = target: T2, RPA–Y193A–GFP (RPA complex harboring rfa1–Y193A) (yeast (S. cerevisiae), UniProt P22336 1-621; P26754 1-273; P26755 1-122, Y193A); experiment: single-molecule DNA Curtains (TIRF microscopy); quantum-dot labelled Dna2 variants on ssDNA coated with RPA–GFP variants; NaCl concentration of these results not told in the text (conditions in Supplementary Table 1)
# T2 construct: Rfa1, large subunit of yeast RPA, with Y193A in the linker between Rfa1-N and DBD-A; Rfa2, middle subunit of yeast RPA; Rfa3, small subunit of yeast RPA; GFP is fused to one subunit and kept in the assay; preparation not described; also called RPA complex harboring rfa1–Y193A mutant; copies: + +
# RPA–GFP = target: T3, RPA–GFP (yeast (S. cerevisiae), UniProt P22336 1-621; P26754 1-273; P26755 1-122); experiment: as above
# T3 construct: Rfa1, large subunit of yeast RPA; Rfa2, middle subunit of yeast RPA; Rfa3, small subunit of yeast RPA; GFP is fused to one subunit and kept in the assay (it is imaged); Coats the ssDNA of the DNA Curtains; also called RPA (green) on ssDNA; copies: + +
# T3 sequence (P26754 whole entry, chain 2 of 2, the tested form may be a part): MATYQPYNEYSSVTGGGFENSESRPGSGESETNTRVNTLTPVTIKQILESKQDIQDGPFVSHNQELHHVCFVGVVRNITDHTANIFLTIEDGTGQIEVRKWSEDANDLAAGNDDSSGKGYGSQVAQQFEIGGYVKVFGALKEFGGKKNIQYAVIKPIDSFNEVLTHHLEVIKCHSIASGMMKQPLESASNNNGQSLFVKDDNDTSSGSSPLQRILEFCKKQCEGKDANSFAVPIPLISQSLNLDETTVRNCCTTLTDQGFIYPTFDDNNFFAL
# T3 sequence (P26755 whole entry, chain 3 of 2, the tested form may be a part): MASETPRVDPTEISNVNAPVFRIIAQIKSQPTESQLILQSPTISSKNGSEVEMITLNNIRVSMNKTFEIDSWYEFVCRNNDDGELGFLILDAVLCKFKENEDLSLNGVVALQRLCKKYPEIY
binding result [1],Binder,other results
binds,"Rfa1-N-DBD-A/B (Rfa1–NAB, amino acid 1–435) (domain or fragment, yeast (S. cerevisiae), UniProt P22336 1-435, looked up, Rfa1 of yeast RPA, residues 1-435 (N, DBD-A and DBD-B domains); The 6xHis tag can optionally be removed by TEV protease; also called NAB polypeptide; pHis–Rfa1 1–435; source: E. coli BL21 codon plus, purified (Ni-NTA, Superdex 200)) MSSVQLSRGDFHSIFTNKQRYDNPTGGVYQVYNTRKSDGANSNRKNLIMISDGIYHMKALLRNQAASKFQSMELQRGDIIRVIIAEPAIVRERKKYVLLVDDFELVQSRADMVNQTSTFLDNYFSEHPNETLKDEDITDSGNVANQTNASNAGVPDMLHSNSNLNANERKFANENPNSQKTRPIFAIEQLSPYQNVWTIKARVSYKGEIKTWHNQRGDGKLFNVNFLDTSGEIRATAFNDFATKFNEILQEGKVYYVSKAKLQPAKPQFTNLTHPYELNLDRDTVIEECFDESNVPKTHFNFIKLDAIQNQEVNSNVDVLGIIQTINPHFELTSRAGKKFDRRDITIVDDSGFSISVGLWNQQALDFNLPEGSVAAIKGVRVTDFGGKSLSMGFSSTLIPNPEIPEAYALKGWYDSKGRNANFITLKQEPGMGGQ",–
binds,"rfa1–NAB–K45E (pHis-Rfa1 1-435 K45E) (domain or fragment, yeast (S. cerevisiae), UniProt P22336 1-435, looked up, Rfa1 of yeast RPA, residues 1-435, charge reversal in the basic cleft of Rfa1-N; also called rfa1–t11; rfa1–K45E; source: E. coli BL21 codon plus, purified (Ni-NTA, Superdex 200)) MSSVQLSRGDFHSIFTNKQRYDNPTGGVYQVYNTRKSDGANSNRENLIMISDGIYHMKALLRNQAASKFQSMELQRGDIIRVIIAEPAIVRERKKYVLLVDDFELVQSRADMVNQTSTFLDNYFSEHPNETLKDEDITDSGNVANQTNASNAGVPDMLHSNSNLNANERKFANENPNSQKTRPIFAIEQLSPYQNVWTIKARVSYKGEIKTWHNQRGDGKLFNVNFLDTSGEIRATAFNDFATKFNEILQEGKVYYVSKAKLQPAKPQFTNLTHPYELNLDRDTVIEECFDESNVPKTHFNFIKLDAIQNQEVNSNVDVLGIIQTINPHFELTSRAGKKFDRRDITIVDDSGFSISVGLWNQQALDFNLPEGSVAAIKGVRVTDFGGKSLSMGFSSTLIPNPEIPEAYALKGWYDSKGRNANFITLKQEPGMGGQ",–
–,"Dna2 (wild type, FLAG-His6-tagged) (enzyme, S. cerevisiae, UniProt P38859 1-1522, looked up, Dna2 nuclease-helicase, Saccharomyces cerevisiae, wild type; Wild-type protein; In DNA Curtains it was labelled with anti-FLAG quantum dots; in MST with the His-tag labelling kit RED-tris-NTA; also called wild-type Dna2; (His)6-tagged Dna2; source: over-expressed in yeast, purified (Ni-NTA, anti-FLAG-M2 resin)) MPGTPQKNKRSASISVSPAKKTEEKEIIQNDSKAILSKQTKRKKKYAFAPINNLNGKNTKVSNASVLKSIAVSQVRNTSRTKDINKAVSKSVKQLPNSQVKPKREMSNLSRHHDFTQDEDGPMEEVIWKYSPLQRDMSDKTTSAAEYSDDYEDVQNPSSTPIVPNRLKTVLSFTNIQVPNADVNQLIQENGNEQVRPKPAEISTRESLRNIDDILDDIEGDLTIKPTITKFSDLPSSPIKAPNVEKKAEVNAEEVDKMDSTGDSNDGDDSLIDILTQKYVEKRKSESQITIQGNTNQKSGAQESCGKNDNTKSRGEIEDHENVDNQAKTGNAFYENEEDSNCQRIKKNEKIEYNSSDEFSDDSLIELLNETQTQVEPNTIEQDLDKVEKMVSDDLRIATDSTLSAYALRAKSGAPRDGVVRLVIVSLRSVELPKIGTQKILECIDGKGEQSSVVVRHPWVYLEFEVGDVIHIIEGKNIENKRLLSDDKNPKTQLANDNLLVLNPDVLFSATSVGSSVGCLRRSILQMQFQDPRGEPSLVMTLGNIVHELLQDSIKYKLSHNKISMEIIIQKLDSLLETYSFSIIICNEEIQYVKELVMKEHAENILYFVNKFVSKSNYGCYTSISGTRRTQPISISNVIDIEENIWSPIYGLKGFLDATVEANVENNKKHIVPLEVKTGKSRSVSYEVQGLIYTLLLNDRYEIPIEFFLLYFTRDKNMTKFPSVLHSIKHILMSRNRMSMNFKHQLQEVFGQAQSRFELPPLLRDSSCDSCFIKESCMVLNKLLEDGTPEESGLVEGEFEILTNHLSQNLANYKEFFTKYNDLITKEESSITCVNKELFLLDGSTRESRSGRCLSGLVVSEVVEHEKTEGAYIYCFSRRRNDNNSQSMLSSQIAANDFVIISDEEGHFCLCQGRVQFINPAKIGISVKRKLLNNRLLDKEKGVTTIQSVVESELEQSSLIATQNLVTYRIDKNDIQQSLSLARFNLLSLFLPAVSPGVDIVDERSKLCRKTKRSDGGNEILRSLLVDNRAPKFRDANDDPVIPYKLSKDTTLNLNQKEAIDKVMRAEDYALILGMPGTGKTTVIAEIIKILVSEGKRVLLTSYTHSAVDNILIKLRNTNISIMRLGMKHKVHPDTQKYVPNYASVKSYNDYLSKINSTSVVATTCLGINDILFTLNEKDFDYVILDEASQISMPVALGPLRYGNRFIMVGDHYQLPPLVKNDAARLGGLEESLFKTFCEKHPESVAELTLQYRMCGDIVTLSNFLIYDNKLKCGNNEVFAQSLELPMPEALSRYRNESANSKQWLEDILEPTRKVVFLNYDNCPDIIEQSEKDNITNHGEAELTLQCVEGMLLSGVPCEDIGVMTLYRAQLRLLKKIFNKNVYDGLEILTADQFQGRDKKCIIISMVRRNSQLNGGALLKELRRVNVAMTRAKSKLIIIGSKSTIGSVPEIKSFVNLLEERNWVYTMCKDALYKYKFPDRSNAIDEARKGCGKRTGAKPITSKSKFVSDKPIIKEILQEYES",recruitment relative to wild-type RPA [2]: 80%
–,"dna2-AC (dna2-D357A,E358A,D361A,D362A,E366A), FLAG-His6-tagged (enzyme, S. cerevisiae, UniProt P38859 1-1522, looked up, Dna2, Saccharomyces cerevisiae, with all acidic residues of the second acidic patch (amino acid 355-366) changed to alanine; source: over-expressed in yeast, purified (Ni-NTA, anti-FLAG-M2 resin)) MPGTPQKNKRSASISVSPAKKTEEKEIIQNDSKAILSKQTKRKKKYAFAPINNLNGKNTKVSNASVLKSIAVSQVRNTSRTKDINKAVSKSVKQLPNSQVKPKREMSNLSRHHDFTQDEDGPMEEVIWKYSPLQRDMSDKTTSAAEYSDDYEDVQNPSSTPIVPNRLKTVLSFTNIQVPNADVNQLIQENGNEQVRPKPAEISTRESLRNIDDILDDIEGDLTIKPTITKFSDLPSSPIKAPNVEKKAEVNAEEVDKMDSTGDSNDGDDSLIDILTQKYVEKRKSESQITIQGNTNQKSGAQESCGKNDNTKSRGEIEDHENVDNQAKTGNAFYENEEDSNCQRIKKNEKIEYNSSAAFSAASLIALLNETQTQVEPNTIEQDLDKVEKMVSDDLRIATDSTLSAYALRAKSGAPRDGVVRLVIVSLRSVELPKIGTQKILECIDGKGEQSSVVVRHPWVYLEFEVGDVIHIIEGKNIENKRLLSDDKNPKTQLANDNLLVLNPDVLFSATSVGSSVGCLRRSILQMQFQDPRGEPSLVMTLGNIVHELLQDSIKYKLSHNKISMEIIIQKLDSLLETYSFSIIICNEEIQYVKELVMKEHAENILYFVNKFVSKSNYGCYTSISGTRRTQPISISNVIDIEENIWSPIYGLKGFLDATVEANVENNKKHIVPLEVKTGKSRSVSYEVQGLIYTLLLNDRYEIPIEFFLLYFTRDKNMTKFPSVLHSIKHILMSRNRMSMNFKHQLQEVFGQAQSRFELPPLLRDSSCDSCFIKESCMVLNKLLEDGTPEESGLVEGEFEILTNHLSQNLANYKEFFTKYNDLITKEESSITCVNKELFLLDGSTRESRSGRCLSGLVVSEVVEHEKTEGAYIYCFSRRRNDNNSQSMLSSQIAANDFVIISDEEGHFCLCQGRVQFINPAKIGISVKRKLLNNRLLDKEKGVTTIQSVVESELEQSSLIATQNLVTYRIDKNDIQQSLSLARFNLLSLFLPAVSPGVDIVDERSKLCRKTKRSDGGNEILRSLLVDNRAPKFRDANDDPVIPYKLSKDTTLNLNQKEAIDKVMRAEDYALILGMPGTGKTTVIAEIIKILVSEGKRVLLTSYTHSAVDNILIKLRNTNISIMRLGMKHKVHPDTQKYVPNYASVKSYNDYLSKINSTSVVATTCLGINDILFTLNEKDFDYVILDEASQISMPVALGPLRYGNRFIMVGDHYQLPPLVKNDAARLGGLEESLFKTFCEKHPESVAELTLQYRMCGDIVTLSNFLIYDNKLKCGNNEVFAQSLELPMPEALSRYRNESANSKQWLEDILEPTRKVVFLNYDNCPDIIEQSEKDNITNHGEAELTLQCVEGMLLSGVPCEDIGVMTLYRAQLRLLKKIFNKNVYDGLEILTADQFQGRDKKCIIISMVRRNSQLNGGALLKELRRVNVAMTRAKSKLIIIGSKSTIGSVPEIKSFVNLLEERNWVYTMCKDALYKYKFPDRSNAIDEARKGCGKRTGAKPITSKSKFVSDKPIIKEILQEYES",fold less recruitment than wild-type Dna2 (RPA–GFP): ~2 fold
